Source: publication doi:10.1101/2024.04.26.591323

T1: TG2 (transglutaminase 2), His6-tagged (Homo sapiens, UniProt P21980 1-687)
T1 sequence: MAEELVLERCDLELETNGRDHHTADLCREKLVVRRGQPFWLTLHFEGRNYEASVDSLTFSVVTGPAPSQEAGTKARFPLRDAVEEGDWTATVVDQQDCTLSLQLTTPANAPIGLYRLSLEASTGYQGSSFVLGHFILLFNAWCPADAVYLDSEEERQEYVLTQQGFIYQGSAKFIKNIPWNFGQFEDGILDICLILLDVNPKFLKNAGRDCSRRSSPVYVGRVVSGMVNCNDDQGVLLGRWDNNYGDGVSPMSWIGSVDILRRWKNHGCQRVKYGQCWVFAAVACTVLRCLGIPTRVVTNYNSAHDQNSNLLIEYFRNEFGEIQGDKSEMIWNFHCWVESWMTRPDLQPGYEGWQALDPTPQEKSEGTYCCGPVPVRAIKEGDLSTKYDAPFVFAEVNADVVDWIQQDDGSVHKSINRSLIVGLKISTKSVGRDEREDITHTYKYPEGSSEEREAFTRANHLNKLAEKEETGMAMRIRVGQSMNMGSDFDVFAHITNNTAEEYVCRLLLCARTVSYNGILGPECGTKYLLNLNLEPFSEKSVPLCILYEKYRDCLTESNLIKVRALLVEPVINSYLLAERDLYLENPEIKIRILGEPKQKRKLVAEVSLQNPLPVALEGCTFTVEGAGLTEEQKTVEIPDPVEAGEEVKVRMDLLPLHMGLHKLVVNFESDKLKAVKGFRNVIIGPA

T2: TG2 (transglutaminase 2), tag-free (Homo sapiens, UniProt P21980 1-687)
T2 sequence: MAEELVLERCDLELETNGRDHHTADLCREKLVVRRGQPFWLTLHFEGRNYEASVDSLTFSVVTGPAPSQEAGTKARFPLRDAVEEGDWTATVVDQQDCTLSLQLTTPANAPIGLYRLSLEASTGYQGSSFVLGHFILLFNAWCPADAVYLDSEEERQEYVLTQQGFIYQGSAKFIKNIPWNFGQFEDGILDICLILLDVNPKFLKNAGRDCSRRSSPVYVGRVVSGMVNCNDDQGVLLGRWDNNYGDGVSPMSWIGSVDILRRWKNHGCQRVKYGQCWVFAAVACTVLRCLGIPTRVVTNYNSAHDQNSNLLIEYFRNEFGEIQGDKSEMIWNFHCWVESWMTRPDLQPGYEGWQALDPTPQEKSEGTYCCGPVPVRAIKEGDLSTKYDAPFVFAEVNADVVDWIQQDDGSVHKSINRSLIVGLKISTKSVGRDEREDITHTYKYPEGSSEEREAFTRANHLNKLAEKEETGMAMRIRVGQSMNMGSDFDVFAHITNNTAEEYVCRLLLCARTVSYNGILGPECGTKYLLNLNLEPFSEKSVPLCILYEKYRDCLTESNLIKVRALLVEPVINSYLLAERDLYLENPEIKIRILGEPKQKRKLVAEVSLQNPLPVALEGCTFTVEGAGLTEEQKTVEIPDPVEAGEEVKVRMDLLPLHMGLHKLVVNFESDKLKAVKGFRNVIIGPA


Tests used:
[1] = target: T1, TG2 (transglutaminase 2), His6-tagged; assay: pull-down
[2] = target: T2, TG2 (transglutaminase 2), tag-free; assay: BLI

Binder	binding result [1]	Kd [2] [nM]
AAAAAAAAAAAAAAAAAAAAAAAAAAAAAAAAAAAAAAAAAAAAAAAAA (ssDNA) [poly(dA) 3' End Biotin]	no binding	
CCUGGUUUUUAAGGAGUGUCGCCAGAGUGCCGCGAAUGAAAAAC (structured_RNA) [43-mer RNA 3' End Biotin]		88
GGGGGGAGGGGGGAGGGGGGAGGGGGGAGGGGGGAGGGGGGAGGGGGGA (ssDNA) [poly(dG) 3' End Biotin]	binds	
